# Measurements: paper doi:10.1101/2021.06.03.446896
# Several values for one entry are separate records, joined by “and”; a condition that tells them apart may be missing. Equal values may be shown once.
# T1: dMi-2 (118-238) (UniProt O97159 118-238)
# T1 sequence: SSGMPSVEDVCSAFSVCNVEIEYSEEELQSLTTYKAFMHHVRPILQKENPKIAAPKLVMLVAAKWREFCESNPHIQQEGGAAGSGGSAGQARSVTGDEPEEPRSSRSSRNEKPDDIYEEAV
# B1: Hsp70Aa #1 RNA (ssRNA)
# RNA: CUCACACACAAUGCCUGCUAUUGGAAUCGAUCUGGGCACCACCUACUCCUGCGUGGGUGUCUACCAACAUGGCAAGGUGGAGAUUAUCGCCAACGACCAG
# B2: Hsp70Aa #2 RNA (ssRNA)
# RNA: GAGGACAUGAAGCACUGGCCUUUCAAGGUUGUAAGCGACGGCGGAAAGCCCAAGAUCGGGGUGGAGUAUAAGGGUGAGUCCAAGAGAUUUGCCCCCGAGG
# B3: Hsp70Aa #5 RNA (ssRNA)
# RNA: GCAGGCCGAGAUUGAUCGCAUGGUGAACGAGGCUGAAAAGUACGCCGACGAGGACGAGAAGCAUCGCCAGCGAAUAACCUCUAGAAAUGCCCUGGAGAGC
# B4: Pgant35a #1 RNA (ssRNA)
# RNA: UCGGCAGGAUGGAGGAUCGACGAAGGGAACGCAACGCCACGGGCCGAGCUGAGCUACCAGGCCAGGGUCACCGUCGGAUGCACUCCAAAUGCCAGCAUUA
# B5: Pgant35a #2 RNA (ssRNA)
# RNA: UCUUCCGGGCGAUCCCAGACACUCGGCACAAGGUGUGCGAUCGCCAGGAGACCACGGAAGCGGAAAAUCUGCCCCAGGCCUCCAUAGUCAUGUGCUUCUA
# B6: Pgant35a #4 RNA (ssRNA)
# RNA: CUGCAUGUGCCGGGCGAGGAGUCCAAGAAGUCGGCGGCAGCGCCCAUCUUUCAGCCUUGGCACUCGCGAAAACGUAACUAUGUCGACACAUUCCAGCUGC
# B7: Pgant35a #5 RNA (ssRNA)
# RNA: AAGUGCCACGAGAUGCUCGGCGAUCAGCAGUGGCGGCACACCCGCAACGCCAACAGUCCCGUCUACAACAUGGCCAAAGGCACCUGCCUCCGGGCAGCUG
# B8: Pgant35a #3 RNA (ssRNA)
# RNA: GUCAUUGGUGCACGCGAGGCCGUGGGCGAUGUGCUCGUCUUCCUCGACUCGCAUAUCGAGGUCAAUCAGCAGUGGCUGGAGCCGCUGCUGCGCCUCAUCA
# B9: Hsp70Aa dsRNA (dsRNA)
# RNA 1: not shown
# RNA 2: not shown
# B10: Hsp70Aa dsDNA (dsDNA)
# DNA 1: not shown
# DNA 2: not shown
# Molecular target: T2, dMi-2 WT (UniProt O97159 1-1982)
# T2 sequence (O97159 whole entry): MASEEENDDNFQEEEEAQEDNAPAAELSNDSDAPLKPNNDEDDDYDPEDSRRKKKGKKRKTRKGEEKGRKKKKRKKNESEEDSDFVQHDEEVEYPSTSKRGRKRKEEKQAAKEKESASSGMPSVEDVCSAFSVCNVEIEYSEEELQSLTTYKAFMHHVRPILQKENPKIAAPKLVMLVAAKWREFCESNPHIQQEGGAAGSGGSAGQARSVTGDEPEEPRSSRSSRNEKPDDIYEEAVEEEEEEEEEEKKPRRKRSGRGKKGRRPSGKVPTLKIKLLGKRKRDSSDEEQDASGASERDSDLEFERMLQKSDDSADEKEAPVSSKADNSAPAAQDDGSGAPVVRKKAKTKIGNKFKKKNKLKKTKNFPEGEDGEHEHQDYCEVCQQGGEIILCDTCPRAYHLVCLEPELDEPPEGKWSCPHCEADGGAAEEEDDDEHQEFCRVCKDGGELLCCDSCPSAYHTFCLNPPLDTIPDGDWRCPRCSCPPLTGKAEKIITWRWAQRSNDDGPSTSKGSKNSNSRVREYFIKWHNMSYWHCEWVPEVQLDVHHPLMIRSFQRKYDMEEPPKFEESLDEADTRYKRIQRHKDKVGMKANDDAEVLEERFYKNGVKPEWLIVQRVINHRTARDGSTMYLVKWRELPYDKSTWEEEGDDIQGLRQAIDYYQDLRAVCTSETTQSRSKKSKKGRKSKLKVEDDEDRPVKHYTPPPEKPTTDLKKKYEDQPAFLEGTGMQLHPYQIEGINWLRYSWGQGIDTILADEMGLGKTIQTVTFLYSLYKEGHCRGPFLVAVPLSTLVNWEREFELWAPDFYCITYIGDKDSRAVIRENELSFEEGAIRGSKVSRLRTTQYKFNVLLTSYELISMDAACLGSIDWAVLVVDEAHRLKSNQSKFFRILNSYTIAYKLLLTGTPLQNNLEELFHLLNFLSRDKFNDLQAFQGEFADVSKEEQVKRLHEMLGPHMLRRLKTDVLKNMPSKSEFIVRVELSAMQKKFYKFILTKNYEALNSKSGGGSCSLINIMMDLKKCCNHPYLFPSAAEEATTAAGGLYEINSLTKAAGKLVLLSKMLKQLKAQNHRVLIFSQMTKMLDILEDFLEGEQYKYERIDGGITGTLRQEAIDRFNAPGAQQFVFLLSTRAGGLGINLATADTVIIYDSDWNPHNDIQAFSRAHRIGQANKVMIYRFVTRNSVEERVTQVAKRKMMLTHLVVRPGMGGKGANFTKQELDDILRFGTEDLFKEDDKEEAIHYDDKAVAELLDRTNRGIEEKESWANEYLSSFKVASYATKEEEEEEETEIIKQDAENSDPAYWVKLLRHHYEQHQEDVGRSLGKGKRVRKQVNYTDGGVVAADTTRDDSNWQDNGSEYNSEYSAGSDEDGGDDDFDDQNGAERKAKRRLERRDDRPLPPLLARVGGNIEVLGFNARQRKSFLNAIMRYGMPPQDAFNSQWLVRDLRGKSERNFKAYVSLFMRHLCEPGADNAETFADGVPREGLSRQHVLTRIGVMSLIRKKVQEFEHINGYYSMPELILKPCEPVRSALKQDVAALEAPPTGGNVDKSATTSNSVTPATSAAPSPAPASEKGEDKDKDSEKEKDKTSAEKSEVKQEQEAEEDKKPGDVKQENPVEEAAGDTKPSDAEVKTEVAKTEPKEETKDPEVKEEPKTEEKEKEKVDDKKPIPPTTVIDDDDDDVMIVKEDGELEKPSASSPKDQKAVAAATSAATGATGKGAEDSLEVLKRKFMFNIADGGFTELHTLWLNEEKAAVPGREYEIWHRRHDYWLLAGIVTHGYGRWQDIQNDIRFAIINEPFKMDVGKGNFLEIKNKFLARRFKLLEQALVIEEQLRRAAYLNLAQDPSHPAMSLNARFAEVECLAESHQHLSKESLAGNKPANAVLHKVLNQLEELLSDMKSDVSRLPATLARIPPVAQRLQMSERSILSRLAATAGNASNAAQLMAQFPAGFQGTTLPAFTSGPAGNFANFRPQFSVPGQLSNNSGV
# Assay: EMSA
row,Binder,binding result
1,B1,binds
2,B2,binds
3,B3,binds
4,B4,binds
5,B5,binds
6,B6,binds
7,B7,binds

# Molecular target: T1, dMi-2 (118-238)
# Assay: EMSA
row,Binder,binding result
1,CCUACGGACUGGACAAGAACCUCAAGGGUGAGCGCAAUGU (ssRNA) [Hsp70Aa #6 RNA],no binding

# Molecular target: T2, dMi-2 WT
# Assay: EMSA
# Remark: another data set of the same source
row,Binder,Kd
1,B8,630 ± 280 nM
2,B9,860 ± 100 nM
3,B10,820 ± 100 nM
4,CCUACGGACUGGACAAGAACCUCAAGGGUGAGCGCAAUGU (ssRNA) [Hsp70Aa #6 RNA],310 ± 100 nM
5,AAAAAAGGGGAAAAGGGGAAAAGGGGAAAAGGGGAAAAAA (structured_RNA) [(G4A4)4 RNA],80 nM
6,GAGAGAGAGAGAGAGAGAGAGAGAGAGAGAGAGAGAGAGA (ssRNA) [(GA)20 RNA],70 nM and 80 nM
